Assay [1] addresses T1, human natriuretic peptide receptor A (NPRA) (human, UniProt P16066 33-1061).
T1 sequence (looked up): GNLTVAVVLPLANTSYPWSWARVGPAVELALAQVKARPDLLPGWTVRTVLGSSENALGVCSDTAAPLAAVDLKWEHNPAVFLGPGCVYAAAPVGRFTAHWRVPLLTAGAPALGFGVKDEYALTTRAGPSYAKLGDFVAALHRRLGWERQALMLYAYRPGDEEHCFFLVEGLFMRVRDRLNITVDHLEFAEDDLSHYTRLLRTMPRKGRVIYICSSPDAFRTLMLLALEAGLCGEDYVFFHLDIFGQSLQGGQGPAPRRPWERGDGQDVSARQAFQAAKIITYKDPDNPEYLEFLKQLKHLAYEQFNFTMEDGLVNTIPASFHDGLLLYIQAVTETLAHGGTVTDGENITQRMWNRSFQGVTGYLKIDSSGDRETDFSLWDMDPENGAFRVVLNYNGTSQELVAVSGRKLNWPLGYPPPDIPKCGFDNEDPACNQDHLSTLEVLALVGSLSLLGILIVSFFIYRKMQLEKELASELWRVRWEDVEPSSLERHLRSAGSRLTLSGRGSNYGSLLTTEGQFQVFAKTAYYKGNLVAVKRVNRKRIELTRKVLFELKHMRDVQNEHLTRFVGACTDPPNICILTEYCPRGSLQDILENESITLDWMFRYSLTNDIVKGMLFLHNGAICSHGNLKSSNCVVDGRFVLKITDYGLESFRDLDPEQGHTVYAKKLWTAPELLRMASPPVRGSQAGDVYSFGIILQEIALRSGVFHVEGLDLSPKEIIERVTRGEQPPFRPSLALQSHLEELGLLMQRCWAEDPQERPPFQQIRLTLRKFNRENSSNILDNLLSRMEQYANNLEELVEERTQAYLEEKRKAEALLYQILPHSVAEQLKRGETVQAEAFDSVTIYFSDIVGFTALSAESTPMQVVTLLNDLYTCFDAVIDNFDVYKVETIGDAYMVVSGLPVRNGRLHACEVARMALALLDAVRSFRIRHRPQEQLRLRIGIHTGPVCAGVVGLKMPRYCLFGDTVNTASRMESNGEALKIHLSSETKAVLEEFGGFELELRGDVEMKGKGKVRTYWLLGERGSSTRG
Briefly: cell-based or functional assay.

Assay [2] addresses T1, human natriuretic peptide receptor A …. Briefly: competitive inhibition of [125I]-ANP binding to HEK-hNPRA membrane homogenates. As for the experimental part: Competitive binding assay. A competitive inhibition binding assay was performed using crude membrane homogenates prepared from HEK-hNPRA cells. To prepare membrane homogenates, cells were rinsed with phosphate-buffered saline and incubated for 15 minutes at 4° C. in hypotonic lysis buffer (10 mM Tris, pH 7.4+5 mM EDTA). Cells were transferred from plates to polypropylene tubes and homogenized. Homogenates were centrifuged at 25,000×g for 20 minutes. Pellets were resuspended in buffer consisting of 50 mM Tris (pH 7.4) and 1 mM EDTA, homogenized and centrifuged at 25,000×g for 20 minutes. […] On the day of an assay, homogenates were thawed and homogenized. […] Assays were stopped by addition of cold wash buffer (phosphate-buffered saline) followed by filtration using a vacuum manifold. Bound radioactivity was determined using a gamma counter. […] Data were analyzed using GraphPad Prism® curve-fitting software.

Bridge positions count the residues as written; N and C are the ends.

B1: mini-ANP, H-Met-cyclo(Cys-His-Phe-Gly-Gly-Arg-Met-Asp-Arg-Ile-Ser-Cys)-Tyr-Arg-NH2 (peptide)
peptide: H-MCHFGGRMDRISCYR-NH2
modifications: disulfide 2-13
SMILES: CC[C@H](C)[C@@H]1NC(=O)[C@H](CCCNC(=N)N)NC(=O)[C@H](CC(=O)O)NC(=O)[C@H](CCSC)NC(=O)[C@H](CCCNC(=N)N)NC(=O)CNC(=O)CNC(=O)[C@H](Cc2ccccc2)NC(=O)[C@H](Cc2c[nH]cn2)NC(=O)[C@@H](NC(=O)[C@@H](N)CCSC)CSSC[C@@H](C(=O)N[C@@H](Cc2ccc(O)cc2)C(=O)N[C@@H](CCCNC(=N)N)C(N)=O)NC(=O)[C@H](CO)NC1=O
notes: also called 15-mer disulfide cyclic peptide
In the case of B1, the “EC50 (accumulation of intracellular cGMP)” value in assay [1] stood at 3.3 nM. Besides, the affinity in assay [2] corresponds to a Ki of 0.6 nM.

The values are drawn from US20070265206A1 (PALATIN TECHNOLOGIES, published 2007).
